These results are taken from PMC3731144 (Proteins, 2012).

The target of assay [1] is gp120YU2 T257A (HIV-1 strain YU2). The assay can be described thus: SPR.
In assay [2] the target is gp120YU2 K97A (HIV-1 strain YU2). The assay can be described thus: SPR. (In SPR one partner is held on a chip, and binding of the other changes the refractive index at the surface.)
For assay [3], the target named is gp120YU2 D474A (HIV-1 strain YU2). Nature of the assay: SPR.
For assay [4], the target named is gp120YU2 E102A (HIV-1 strain YU2). The assay can be described thus: SPR.
Another assay deals with CCR5-utilizing virus. The conditions noted are these: ref [4]; cited from earlier work.

By Kd is commonly meant a measure of binding affinity in units of concentration. A high value points to weaker binding. As for “Hexahis-tagged 4-domain soluble CD4 (receptor)”, the dissociation constant Kd in assay [1] was 5 nM; in assay [2] it was 10 nM; in assay [3], 5 nM; in assay [4], 3 nM. Further, the RU bound at the end of association (500 nM CD4) amounted to 23 RU in assay [1] and 47 RU in assay [3].
Take maraviroc: the “antiviral effectiveness by tropism” value in the assay with CCR5-utilizing virus is reported as “only effective against solely CCR5-utilizing virus”.
